Test results taken from patent US20180037644A1 (Pfizer, published 2018).
Numbering of substitutions follows the chain as printed. Read-outs that look alike come from different tables or passages of the source.

What was measured:
[1] = target: T1, cynomolgus monkey IL-33 (cys mut) (cynomolgus monkey); experiment: SPR, IgG captured by anti-human Fc, IL-33 in solution
T1 construct: Variant in which the three cysteine residues are serine; N-terminal Met and C-terminal His6 in the entry; also called cyno IL-33; cyno IL-33 (cys mut)
T1 chain: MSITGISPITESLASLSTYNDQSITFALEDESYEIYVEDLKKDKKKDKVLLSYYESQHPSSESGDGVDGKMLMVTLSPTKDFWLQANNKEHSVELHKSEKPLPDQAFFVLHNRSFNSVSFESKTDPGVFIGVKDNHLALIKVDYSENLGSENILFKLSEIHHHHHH
Procedure: (§1) Binding to human and cynomolgus monkey IL-33 was measured by surface plasmon resonance using a BIAcore T200 instrument. An anti-human Fc antibody was immobilized on a CM5 chip, and anti-IL-33 antibodies were captured.

[2] = target: T2, human IL-33 (mm2) (human, UniProt O95760 112-270); experiment: as above
T2 construct: Variant in which all four cysteine residues are serine; the entry carries an N-terminal Met and a C-terminal His6; Biotinylated in some assays; also called hIL-33 (mm2); huIL-33 (mm2)
T2 chain: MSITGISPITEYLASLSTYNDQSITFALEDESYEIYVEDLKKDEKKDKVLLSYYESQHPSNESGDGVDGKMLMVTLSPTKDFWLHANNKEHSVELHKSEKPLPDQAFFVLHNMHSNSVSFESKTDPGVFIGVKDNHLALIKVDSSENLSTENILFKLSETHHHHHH
Procedure: as §1

[3] = target: T1, cynomolgus monkey IL-33 (cys mut); experiment: cell-based or functional assay
[4] = target: T2, human IL-33 (mm2); experiment: cell-based or functional assay
[5] = target: T2, human IL-33 (mm2); experiment: cell-based or functional assay
[6] = target: T1, cynomolgus monkey IL-33 (cys mut); experiment: cell-based or functional assay
[7] = target: T2, human IL-33 (mm2); experiment: cell-based or functional assay
[8] = target: T3, human IL-33 WT (R&D) (human, UniProt O95760 112-270); experiment: cell-based or functional assay
T3 sequence: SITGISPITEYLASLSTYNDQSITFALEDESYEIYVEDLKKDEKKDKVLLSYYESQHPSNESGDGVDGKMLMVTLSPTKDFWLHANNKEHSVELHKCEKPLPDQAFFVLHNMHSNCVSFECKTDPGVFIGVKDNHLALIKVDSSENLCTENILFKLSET

[9] = target: T2, human IL-33 (mm2); experiment: cell-based or functional assay
[10] = target: T3, human IL-33 WT (R&D); experiment: cell-based or functional assay; remark: listed apart in the source
[11] = target: T1, cynomolgus monkey IL-33 (cys mut); experiment: cell-based or functional assay
[12] = target: T2, human IL-33 (mm2); experiment: cell-based or functional assay
[13] = target: T3, human IL-33 WT (R&D); experiment: cell-based or functional assay; remark: listed apart in the source
[14] = target: T2, human IL-33 (mm2); experiment: cell-based or functional assay
[15] = target: T2, human IL-33 (mm2); experiment: cell-based or functional assay
[16] = target: T3, human IL-33 WT (R&D); experiment: cell-based or functional assay; remark: listed apart in the source
[17] = target: T1, cynomolgus monkey IL-33 (cys mut); experiment: cell-based or functional assay
[18] = target: T2, human IL-33 (mm2); experiment: cell-based or functional assay
[19] = target: T1, cynomolgus monkey IL-33 (cys mut); experiment: cell-based or functional assay
[20] = target: T2, human IL-33 (mm2); experiment: cell-based or functional assay
[21] = target: T1, cynomolgus monkey IL-33 (cys mut); experiment: cell-based or functional assay
[22] = target: T2, human IL-33 (mm2); experiment: cell-based or functional assay
[23] = target: T1, cynomolgus monkey IL-33 (cys mut); experiment: cell-based or functional assay
[24] = target: T4, wild-type cynomolgus monkey IL-33 (cynomolgus monkey); experiment: cell-based or functional assay
T4 chain: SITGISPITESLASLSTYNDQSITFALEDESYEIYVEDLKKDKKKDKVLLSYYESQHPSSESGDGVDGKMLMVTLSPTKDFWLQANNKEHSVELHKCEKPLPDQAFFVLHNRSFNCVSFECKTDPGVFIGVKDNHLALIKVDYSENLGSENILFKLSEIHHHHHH

[25] = target: T2, human IL-33 (mm2); experiment: cell-based or functional assay
[26] = target: T3, human IL-33 WT (R&D); experiment: cell-based or functional assay; remark: listed apart in the source
[27] = target: T2, human IL-33 (mm2); experiment: cell-based or functional assay
[28] = target: T3, human IL-33 WT (R&D); experiment: cell-based or functional assay; remark: listed apart in the source
[29] = target: T1, cynomolgus monkey IL-33 (cys mut); experiment: cell-based or functional assay
[30] = target: T4, wild-type cynomolgus monkey IL-33; experiment: cell-based or functional assay
[31] = target: T2, human IL-33 (mm2); experiment: cell-based or functional assay
[32] = target: T3, human IL-33 WT (R&D); experiment: cell-based or functional assay; remark: listed apart in the source
[33] = target: T3, human IL-33 WT (R&D); experiment: Octet, captured on anti-Fc tip; IL-33 premixed with IL33-158LS (competitor)

B1: 7E8 CDR graft (antibody, human IgG1, kappa)
heavy: HSEVQLVESGGGLVQPGGSLRLSCAASGFTFSSYWMYWVRQAPGKGLEWVASITPNGGNTYYPDSVKGRFTISRDNAKNSLYLQMNSLRAEDTAVYYCARGHYYYTSYSLGYWGQGTLVTVSSASTKGPSVFPLAPSSKSTSGGTAALGCLVKDYFPEPVTVSWNSGALTSGVHTFPAVLQSSGLYSLSSVVTVPSSSLGTQTYICNVNHKPSNTKVDKKVEPKSCDKTHTCPPCPAPEAAGAPSVFLFPPKPKDTLMISRTPEVTCVVVDVSHEDPEVKFNWYVDGVEVHNAKTKPREEQYNSTYRVVSVLTVLHQDWLNGKEYKCKVSNKALPAPIEKTISKAKGQPREPQVYTLPPSREEMTKNQVSLTCLVKGFYPSDIAVEWESNGQPENNYKTTPPVLDSDGSFFLYSKLTVDKSRWQQGNVFSCSVMHEALHNHYTQKSLSLSPGK
light: DIQMTQSPSSLSASVGDRVTITCKASQNINKHLDWYQQKPGKAPKLLIYFTNNLQTGVPSRFSGSGSGTDFTLTISSLQPEDFATYYCFQYNNGWTFGGGTKVEIKRTVAAPSVFIFPPSDEQLKSGTASVVCLLNNFYPREAKVQWKVDNALQSGNSQESVTEQDSKDSTYSLSSTLTLSKADYEKHKVYACEVTHQGLSSPVTKSFNRGEC
notes: also called CDR-grafted 7E8; 7E8 CDR-grafted
[1]
  Kd: 0.142 nM
[2]
  Kd: 0.171 nM
[3]
  IC50, HEK293 ST2 NFkB: 0.077 nM
[4]
  IC50, HEK293 ST2 NFkB: 0.057 nM
[5]
  IC50, HEK293 ST2 NFkB: 0.019 nM
[6]
  IC50, HEK293 ST2 NFkB: 0.184 nM
[7]
  IC50, HEK293 ST2 NFkB: 0.093 nM
[8]
  IC50, HEK293 ST2 NFkB: 0.322 nM
[9]
  IC50, human whole blood: 0.014 nM
[10]
  IC50, human whole blood: 0.387 nM
[11]
  IC50, HEK293 ST2 NFkB: 0.069 nM
[12]
  IC50, HEK293 ST2 NFkB: 0.043 nM
[13]
  IC50, HEK293 ST2 NFkB: 3.21 nM
[14]
  IC50, IFN-γ production in human PBMC: 0.0014 nM
[15]
  EC50 of IL-33 + 0.2 pM 7E8, human PBMC donor 149: 0.9 pM
  EC50 of IL-33 + 0.2 pM 7E8, human PBMC donor 172: 15.1 pM
  EC50 of IL-33 + 2 pM 7E8, human PBMC donor 149: 2.6 pM
  EC50 of IL-33 + 2 pM 7E8, human PBMC donor 172: 23.2 pM
  EC50 of IL-33 + 20 pM 7E8, HEK293 ST2 NFkB reporter cells: 2.6 pM
  EC50 of IL-33 + 20 pM 7E8, human PBMC donor 149: 29.1 pM
  EC50 of IL-33 + 20 pM 7E8, human PBMC donor 172: 154 pM
  EC50 of IL-33 + 200 pM 7E8, HEK293 ST2 NFkB reporter cells: 29.1 pM
  EC50 of IL-33 + 200 pM 7E8, human PBMC donor 149: 262 pM
  EC50 of IL-33 + 200 pM 7E8, human PBMC donor 172: 400 pM
  EC50 of IL-33 + 2 nM 7E8, HEK293 ST2 NFkB reporter cells: 0.262 nM
  EC50 of IL-33 + 2 nM 7E8, human PBMC donor 149: 2.83 nM
  EC50 of IL-33 + 2 nM 7E8, human PBMC donor 172: 1.22 nM
  EC50 of IL-33 + 20 nM 7E8, HEK293 ST2 NFkB reporter cells: 2.83 nM
[16]
  EC50 of IL-33 + 2 pM 7E8, HEK293 ST2 NFkB reporter cells: 8 pM
  EC50 of IL-33 + 20 pM 7E8, HEK293 ST2 NFkB reporter cells: 10.2 pM
  EC50 of IL-33 + 200 pM 7E8, HEK293 ST2 NFkB reporter cells: 25.8 pM
  EC50 of IL-33 + 2 nM 7E8, HEK293 ST2 NFkB reporter cells: 0.103 nM
  EC50 of IL-33 + 20 nM 7E8, HEK293 ST2 NFkB reporter cells: 0.653 nM
[17]
  IC50, HEK293 ST2 NFkB: 0.054 nM
[18]
  IC50, HEK293 ST2 NFkB: 0.04 nM
[19]
  IC50, HEK293 ST2 NFkB cyno IL-33: 0.18 nM
[20]
  IC50, HEK293 ST2 NFkB: 0.114 nM
  IC50, PBMC mm2: 0.004 nM
  IC50, whole blood mm2: 0.009 nM
[21]
  IC50, HEK293 ST2 NFkB: 0.131 nM
[22]
  IC50, HEK293 ST2 NFkB: 0.059 nM

B2: IL33-158LS (antibody, human IgG1, kappa)
heavy: EVQLVESGGGLVQPGGSLRLSCAASGFTFSSYWMYWVRQAPGKGLEWVAAITPNAGEDYYPESVKGRFTISRDNAKNSLYLQMNSLRAEDTAVYYCARGHYYYTSYSLGYWGQGTLVTVSSASTKGPSVFPLAPSSKSTSGGTAALGCLVKDYFPEPVTVSWNSGALTSGVHTFPAVLQSSGLYSLSSVVTVPSSSLGTQTYICNVNHKPSNTKVDKKVEPKSCDKTHTCPPCPAPEAAGAPSVFLFPPKPKDTLMISRTPEVTCVVVDVSHEDPEVKFNWYVDGVEVHNAKTKPREEQYNSTYRVVSVLTVLHQDWLNGKEYKCKVSNKALPAPIEKTISKAKGQPREPQVYTLPPSREEMTKNQVSLTCLVKGFYPSDIAVEWESNGQPENNYKTTPPVLDSDGSFFLYSKLTVDKSRWQQGNVFSCSVLHEALHSHYTQKSLSLSPG
light: B1 light with N93Q
[23]
  Cynomolgus monkey:human IC50 ratio: cysteine mutant IL-33: 1.8
  IC50, HEK293 ST2 NFkB: 0.034 nM
[24]
  Cynomolgus monkey:human IC50 ratio: wild-type IL-33: 4.2
  IC50, HEK293 ST2 NFkB (DTT-pretreated IL-33): 1.39 nM
[25]
  IC50, HEK293 ST2 NFkB: 0.019 nM
[26]
  IC50, HEK293 ST2 NFkB (DTT-pretreated IL-33): 0.331 nM
[6]
  IC50, HEK293 ST2 NFkB: 0.198 nM
[7]
  IC50, HEK293 ST2 NFkB: 0.162 nM
[8]
  IC50, HEK293 ST2 NFkB: 0.983 nM
[27]
  IC50, HEK293 ST2 NFkB: 0.079 nM
[28]
  IC50, HEK293 ST2 NFkB: 2.66 nM
[9]
  IC50, human whole blood: 0.021 nM
[10]
  IC50, human whole blood: 0.868 nM
[14]
  IC50, IFN-γ production in human PBMC: 0.0014 nM
[29]
  Cynomolgus monkey:human IC50 ratio: cysteine mutant IL-33: 1.4
  IC50, HEK293 ST2 NFkB: 0.013 nM
[30]
  Cynomolgus monkey:human IC50 ratio: wild-type IL-33: 9.2
  IC50, HEK293 ST2 NFkB: 0.562 nM
[31]
  IC50, HEK293 ST2 NFkB: 0.009 nM
[32]
  IC50, HEK293 ST2 NFkB: 0.061 nM

B3: IL33-271 (antibody, human IgG1, kappa, V domains shown)
VH: QVLLVQSGAEVKKPGATVKVSCKASGSTFTGYYMHWVRQAPGQGLEWMGWINPNNGGTNYAQKFQGRVTMTRDTSISTAYMELSRLRSDDTAVYYCARELRYNWKSWGQGTLVTVSS
VL: EIVLTQSPGTLSLSPGERVTLSCRASQSVGRPYLAWYQQIPGQAPRLLIYGASSRATDIPDRFSGNGSGTDFTLTISRLEPEDFAVYYCQQYDNSPYTFGQGTRLEIKR
notes: also called control non-neutralizing anti-IL-33 antibody
[33]
  binding result: binds
